T1: human ARG2 (Homo sapiens, UniProt P78540, E275H/R327K)
T1 construct: His10 (after a GGG linker) (C); made in house; host or cells: E. coli BL21 (DE3)
T1 sequence (P78540 23-354 E275H/R327K): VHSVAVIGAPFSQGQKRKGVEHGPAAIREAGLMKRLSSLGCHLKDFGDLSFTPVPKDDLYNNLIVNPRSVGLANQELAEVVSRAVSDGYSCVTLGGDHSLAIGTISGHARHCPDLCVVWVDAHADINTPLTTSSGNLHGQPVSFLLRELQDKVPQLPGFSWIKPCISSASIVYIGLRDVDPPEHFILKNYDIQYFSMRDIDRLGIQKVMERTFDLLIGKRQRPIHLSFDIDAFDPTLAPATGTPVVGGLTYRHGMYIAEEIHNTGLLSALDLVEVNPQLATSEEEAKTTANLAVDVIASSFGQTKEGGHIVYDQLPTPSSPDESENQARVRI

T2: human ARG1 (Homo sapiens, UniProt P05089)
T2 construct: Avi tag (N); His10 (after a GGG linker) (C); made in house; host or cells: E. coli BL21 (DE3)
T2 sequence (P05089 with tags, fused parts or gaps): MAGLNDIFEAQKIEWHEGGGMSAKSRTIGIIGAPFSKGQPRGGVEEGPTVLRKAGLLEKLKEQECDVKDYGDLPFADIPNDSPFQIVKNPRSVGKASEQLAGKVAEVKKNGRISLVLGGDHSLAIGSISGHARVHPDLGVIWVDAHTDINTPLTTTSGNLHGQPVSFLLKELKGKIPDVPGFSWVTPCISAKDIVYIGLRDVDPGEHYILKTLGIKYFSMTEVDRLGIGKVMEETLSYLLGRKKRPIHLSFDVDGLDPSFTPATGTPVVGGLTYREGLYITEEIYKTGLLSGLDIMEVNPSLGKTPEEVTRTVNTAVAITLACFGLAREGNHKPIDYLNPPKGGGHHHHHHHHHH


biological target: T1, human ARG2; assay: Bio-Layer Interferometry (OctetRED) binding kinetics, human ARG2; settings: Fab as analyte; streptavidin capture; analyte 1.8 to 120 nM; affinity-matured antibodies
From the text: The OctetRED (Pall ForteBio) instrument was used to assess the kinetic parameters of the interactions between C0020187 and recombinantly produced human ARG2, cynomolgus ARG2 and human ARG1. The Octet biosensor uses an optical analytical technique that analyses the interference pattern of white light reflected from two surfaces: a layer of immobilised protein on the sensor tip, and an internal reference layer. Any changes in binding at the biosensor tip result in a shift in interference pattern, which can be measured in real time. Molecules associating with or dissociating from ligands at the biosensor tip shift the interference pattern and generate a response on the Octet system which is recorded by the acquisition software.
Typically, a defined concentration of the analyte species is brought into contact with the coupled ligand and any binding is detected as an increased in signal (association phase). This is followed by a period of buffer rinse, during which dissociation of the analyte species from the surface immobilised ligand can be observed as a decrease in signal (dissociation phase). Repetition of this with a range of analyte concentrations provides data for the analysis of binding kinetics.
An Octet Kinetics Buffer (PBS containing 0.01% BSA and 0.002% Tween20) is typically used as the diluent buffer for the analyte samples and as the flow buffer during the dissociation phase. The experimental data is recorded over time as shift in interference pattern (nm) over time, which is directly proportional to the optical thickness at the biosensor tip, which in turn is an approximate measure of the mass of analyte bound. The proprietary Octet Data Analysis software package can then be used to process data and fit binding models to the data sets. Returned association (ka, M^−1 s^−1) and dissociation (kd, s^−1) rate constants allow calculation of dissociation (KD, M) affinity constants.
(§1) The affinity of binding between the Fab of C0020187 and human ARG2, cynomolgus ARG2 and human ARG1 was estimated using assays in which the biotinylated ARG antigen was captured on a streptavidin sensor tip. A fresh sensor tip was used for each measurement and no regeneration was used. A series of dilutions of the C0020187 Fab (3.25-240 nM) were individually placed in contact with the ligand surface for a sufficient amount of time to observe sensorgrams that could be fitted to an appropriate binding model with confidence (typically 5 minutes), followed by an appropriate length of dissociation time (typically 10 minutes). Blank reference (0 nM Fab) data were subtracted from each dataset to reduce the impact of any buffer artefacts or non-specific binding effects. An appropriate binding model was then fitted simultaneously to the data from each analyte titration using the Octet Evaluation software.
Example results for C0020187 are shown in Table 9, showing the association rate constants (ka), dissociation rate constants (kd) and dissociation constants (KD). These parameters were derived from a 1:1 binding fit to the data.
The affinities of the affinity-matured antibodies to human ARG2 were measured on the OctetRED system as described in section 1.15 using the streptavidin capture method. Typically, an analyte titration range of 1.8 to 120 nM was used.
The affinities of the second-generation antibodies to human ARG2 were measured on the OctetRED system. A screening assay which stably captures His-tagged ARG2 as the ligand on an anti-His surface was utilised to screen the second-generation candidates as Fabs at an analyte range of 1.8 to 120 nM, with an association time of 5 minutes and a dissociation time of 10 minutes. Sensors were regenerated using 10 mM glycine pH 1.5 after each cycle. Based on this assay, six candidates with estimated affinities in the sub-nanomolar range were identified, and they were further profiled using an extended assay which is more suitable for antibodies of high affinities. […]

ka	kd	Molecule
427000 M⁻¹ s⁻¹	0.00228 s⁻¹	C0021032 Fab (antibody, V domains shown) VH: EVQLLESGGGLVQPGGSLRLSCAASGFTFSSYAMSWVRQAPGKGLEWVSAYGYGIGSTYYADSVKGRFTISRDNSKNTLYLQMNSLRAEDTAVYYCARLRADLGLYMDLWGRGTLVTVSS VL: QSVLTQPPSVSAAPGQKVTISCSGSSSNIGNHYVSWYQQLPGTAPKLLIYDNSERPSGIPDRFSGSKSGTSATLGITGLQTGDEADYYCGTWDSSLSALVFGGGTKLTVL
295000 M⁻¹ s⁻¹	0.00146 s⁻¹	C0021097 Fab (antibody, V domains shown) VH: EVQLLESGGGLVQPGGSLRLSCAASGFTFSSYAMSWVRQAPGKGLEWVSAISYHPGSTYYADSVKGRFTISRDNSKNTLYLQMNSLRAEDTAVYYCARLRADLGLYMDLWGRGTLVTVSS VL: QSVLTQPPSVSAAPGQKVTISCSGSSSNIGNHYVSWYQQLPGTAPKLLIYNTFARPSGIPDRFSGSKSGTSATLGITGLQTGDEADYYCGTWDSSLSALVFGGGTKLTVL
139000 M⁻¹ s⁻¹	0.00114 s⁻¹	C0021118 Fab (antibody, V domains shown) VH: EVQLLESGGGLVQPGGSLRLSCAASGFTFSSYAMSWVRQAPGKGLEWVSASLTNPGSTYYADSVKGRFTISRDNSKNTLYLQMNSLRAEDTAVYYCARLRADLGLYMDLWGRGTLVTVSS VL: QSVLTQPPSVSAAPGQKVTISCSGSSSNIGNHYVSWYQQLPGTAPKLLIYDNSERPSGIPDRFSGSKSGTSATLGITGLQTGDEADYYCATYDTNLSALVFGGGTKLTVL
314000 M⁻¹ s⁻¹	0.00107 s⁻¹	C0021101 Fab (antibody, V domains shown) VH: EVQLLESGGGLVQPGGSLRLSCAASGFTFSSYAMSWVRQAPGKGPEWVSAISGFSPYYADSVKGRFTISRDNSKNTLYLQMNSLRAEDTAVYYCARLRADLGLYMDLWGRGTLVTVSS VL: QSVLTQPPSVSAAPGQKVTISCSGSSSNIGNHYVSWYQQLPGTAPKLLIYNNRSPTSGIPDRFSGSKSGTSATLGITGLQTGDEADYYCGTWDSSLSALVFGGGTKLTVL
326000 M⁻¹ s⁻¹	0.00108 s⁻¹	C0021141 Fab (antibody, V domains shown) VH: EVQLLESGGGLVQPGGSLRLSCAASGFTFYPDPQGWVRQAPGKGLEWVSAYGYGIGSTYYADSVKGRFTISRDNSKNTLYLQMNSLRAEDTAVYYCARLRADLGLYMDLWGRGTLVTVSS VL: QSVLTQPPSVSAAPGQEVTISCSGSSSNIDNHYVSWYQQLPGTAPKLLIYDNSERPSGIPDRFSGSKSGTSATLGITGLQTGDEADYYCGTWDSSLSALVFGGGTKLTVL
473000 M⁻¹ s⁻¹	0.002 s⁻¹	C0021021 Fab (antibody, V domains shown) VH: EVQLLESGGGLVQPGGSLRLSCAASGFTFSSYAMSWVRQAPGKGLEWVSSILFSPGSTYYADSVKGRFTISRDNSKNTLYLQMNSLRAEDTAVYYCARLRADLGLYMDLWGRGTLVTVSS VL: QSVLTQPPSVSAAPGQKVTISCSGSSSNIGNHYVSWYQQLPGTAPKLLIYDNSERPSGIPDRFSGSKSGTSATLGITGLQTGDEADYYCGTWDSSLSALVFGGGTKLTVL
399000 M⁻¹ s⁻¹	0.0011 s⁻¹	C0021142 Fab (antibody, V domains shown) VH: EVQLLESGGGLVQPGGSLRLSCAASGFTFSSYAMSWVRQAPGKGLEWVSAHTHSPGSTYYADSVKGRFTISRDNSKNTLYLQMNSLRAEDTAVYYCARLRADLGLYMDLWGRGTLVTVSS VL: QSVLTQPPSVSAAPGQKVTISCSGSSSNIGNHYVSWYQQLPGTAPKLLIYDNSERPSGIPDRFSGSKSGTSATLGITGLQTGDEADYYCGTWDSSLSALVFGGGTKLTVL
441000 M⁻¹ s⁻¹	0.00154 s⁻¹	C0021096 Fab (antibody, V domains shown) VH: EVQLLESGGGLVQPGGSLRLSCAASGFTFSSYAMSWVRQAPGKGLEWVSAISGYSGYYADSVKGRFTISRDNSKNTLYLQMNSLRAEDTAVYYCARLRADLGLYMDLWGRGTLVTVSS VL: QSVLTQPPSVSAAPGQKVTISCSGSSSNIGNHYVSWYQQLPGTAPKLLIYNTERRMSGIPDRFSGSKSGTSATLGITGLQTGDEADYYCGTWDSSLSALVFGGGTKLTVL

same assay, conditions: second-generation Fab; extended assay: association 10 min, dissociation 40 min, 0.47 to 30 nM, streptavidin surface with bio-ARG2

ka	kd	Molecule
195000 M⁻¹ s⁻¹	6.59e-05 s⁻¹	C0021144: anti-ARG2 antibody, VH SEQ ID NO: 252, VL SEQ ID NO: 257 (antibody, listed as Homo sapiens, V domains shown, C0021144) VH: EVQLLESGGGLVQPGGSLRLSCAASGFTFRYDYHVWVRQAPGKGLEWVSAISGSGGSTYYADSVKGRFTISRDNSKNTLYLQMNSLRAEDTAVYYCARLRADLGLYMDLWGRGTLVTVSS VL: QSVLTQPPSVSAAPGQKVTVSCSGSSSNIGNHHVSWYQQLPGTAPKLLIYDTTVLSSGVPDRFSGSKSGTSATLGITGLQTGDEADYYCGTWDELTSNLVFGGGTKLTVL
159000 M⁻¹ s⁻¹	5.67e-05 s⁻¹	C0021155: anti-ARG2 antibody, VH SEQ ID NO: 262, VL SEQ ID NO: 267 (antibody, listed as Homo sapiens, V domains shown, C0021155) VH: EVQLLESGGGLVQPGGSLRLSCEASGFTFRYDYHVWVRQAPGKGLEWVSAISGSGGSTYYADPVKGRFTISRDNSKNTLYLQMNSLRAEDTAVYYCARLRADLGLYMDLWGRGTLVTVSS VL: RSVLTQPPSVSAAPGQKVTISCSGSSSNIGNHYVSWYQQLPGTAPKLLIYDTTVLSSGIPDRFSGSKSGTSATLGITGLQTGDEADYYCGTWDELTSNLVFGGGTRLTVL

biological target: T2, human ARG1; assay: Bio-Layer Interferometry (OctetRED) binding, human ARG1; settings: Fab analyte up to 120 nM, screening assay on anti-His surface
Description: as §1
(§2) The binding of affinity-matured antibodies to human ARG1 was also tested on the OctetRED system using a screening assay which stably captures […] as the ligand on an anti-His surface. The Fabs were typically tested in an analyte range of 1.8 to 120 nM, with an association time of 5 minutes and a dissociation time of 10 minutes. Sensors were regenerated using 10 mM glycine pH 1.5 after each cycle.
as §2, with “Binding” for “The binding”, “the second-generation” for “affinity-matured”, “ARG” for “ARG1”, “were” for “were typically”, “as” for “in an”, “up” for “range of 1.8”

Results, binding to human ARG1 (BLI)	Molecule
No binding observed	C0021144: anti-ARG2 antibody, VH SEQ ID NO: 252, VL SEQ ID NO: 257 (antibody, listed as Homo sapiens, V domains shown, C0021144) VH: EVQLLESGGGLVQPGGSLRLSCAASGFTFRYDYHVWVRQAPGKGLEWVSAISGSGGSTYYADSVKGRFTISRDNSKNTLYLQMNSLRAEDTAVYYCARLRADLGLYMDLWGRGTLVTVSS VL: QSVLTQPPSVSAAPGQKVTVSCSGSSSNIGNHHVSWYQQLPGTAPKLLIYDTTVLSSGVPDRFSGSKSGTSATLGITGLQTGDEADYYCGTWDELTSNLVFGGGTKLTVL
No binding observed	C0021155: anti-ARG2 antibody, VH SEQ ID NO: 262, VL SEQ ID NO: 267 (antibody, listed as Homo sapiens, V domains shown, C0021155) VH: EVQLLESGGGLVQPGGSLRLSCEASGFTFRYDYHVWVRQAPGKGLEWVSAISGSGGSTYYADPVKGRFTISRDNSKNTLYLQMNSLRAEDTAVYYCARLRADLGLYMDLWGRGTLVTVSS VL: RSVLTQPPSVSAAPGQKVTISCSGSSSNIGNHYVSWYQQLPGTAPKLLIYDTTVLSSGIPDRFSGSKSGTSATLGITGLQTGDEADYYCGTWDELTSNLVFGGGTRLTVL
